Measured values published in patent publication US20050037432.

Molecular target: T1, Alpha-2-Macroglobulin
T1 chain: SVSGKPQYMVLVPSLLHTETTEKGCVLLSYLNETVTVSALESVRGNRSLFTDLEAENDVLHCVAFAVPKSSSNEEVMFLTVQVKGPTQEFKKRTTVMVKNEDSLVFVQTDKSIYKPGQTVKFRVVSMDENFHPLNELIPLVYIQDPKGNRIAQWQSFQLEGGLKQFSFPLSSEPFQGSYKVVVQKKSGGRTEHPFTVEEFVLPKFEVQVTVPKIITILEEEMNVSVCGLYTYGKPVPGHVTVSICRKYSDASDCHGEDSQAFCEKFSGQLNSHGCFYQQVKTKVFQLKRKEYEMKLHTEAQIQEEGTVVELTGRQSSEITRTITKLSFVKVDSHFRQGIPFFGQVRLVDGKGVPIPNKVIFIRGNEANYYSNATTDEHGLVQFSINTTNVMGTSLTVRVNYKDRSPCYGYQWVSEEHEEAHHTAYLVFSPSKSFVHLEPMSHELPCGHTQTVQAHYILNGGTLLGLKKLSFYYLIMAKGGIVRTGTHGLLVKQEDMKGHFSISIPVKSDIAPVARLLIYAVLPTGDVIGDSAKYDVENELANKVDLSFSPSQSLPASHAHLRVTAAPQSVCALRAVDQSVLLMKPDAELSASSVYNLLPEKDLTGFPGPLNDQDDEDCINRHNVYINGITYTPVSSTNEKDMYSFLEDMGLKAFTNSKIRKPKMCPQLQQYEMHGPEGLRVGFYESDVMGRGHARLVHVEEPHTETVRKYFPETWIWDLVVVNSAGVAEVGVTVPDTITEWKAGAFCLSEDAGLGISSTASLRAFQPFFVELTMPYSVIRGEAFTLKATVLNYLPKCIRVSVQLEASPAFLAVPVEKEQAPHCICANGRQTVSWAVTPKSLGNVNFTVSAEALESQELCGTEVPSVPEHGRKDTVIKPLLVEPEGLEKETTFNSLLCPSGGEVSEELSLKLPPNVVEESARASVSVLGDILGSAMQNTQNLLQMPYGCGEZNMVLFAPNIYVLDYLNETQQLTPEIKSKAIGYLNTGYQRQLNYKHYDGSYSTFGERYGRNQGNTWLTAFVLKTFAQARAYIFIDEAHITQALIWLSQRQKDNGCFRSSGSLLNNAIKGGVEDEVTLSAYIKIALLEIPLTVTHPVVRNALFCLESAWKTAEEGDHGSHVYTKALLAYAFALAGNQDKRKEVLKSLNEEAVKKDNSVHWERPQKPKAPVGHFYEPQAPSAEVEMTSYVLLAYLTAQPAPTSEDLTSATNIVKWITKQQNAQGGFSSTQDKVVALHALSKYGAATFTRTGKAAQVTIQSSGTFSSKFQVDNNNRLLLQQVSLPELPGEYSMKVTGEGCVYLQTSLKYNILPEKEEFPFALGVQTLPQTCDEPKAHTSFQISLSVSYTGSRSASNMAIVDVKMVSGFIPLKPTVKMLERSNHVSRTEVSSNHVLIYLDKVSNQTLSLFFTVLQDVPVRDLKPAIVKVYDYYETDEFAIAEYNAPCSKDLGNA

B1: ADAMTS-5 (protein)
chain: SISRARQVELLLVADASMARLYGRGLQHYLLTLASIANRLYSHASIENHIRLAVVKVVVLGDKDKSLEVSKNAATTLKNFCKWQHQHNQLGDDHEEHYDAAILFTREDLCGHHSCDTLGMADVGTICSPERSCAVIEDDGLHAAFTVAHEIGHLLGLSHDDSKFCEETFGSTEDKRLMSSILTSIDASKPWSKCTSATITEFLDDGHGNCLLDLPRKQILGPEELPGQTYDATQQCNLTFGPEYSVCPGMDVCARLWCAVVRQGQMVCLTKKLPAVEGTPCGKGRICLQGKCVDKTKKKYYSTSSHGNWGSWGSWGQCSRSCGGGVQFAYRHCNNPAPRNNGRYCTGKRAIYRSCSLMPCPPNGKSFRHEQCEAKNGYQSDAKGVKTFVEWVPKYAGVLPADVCKLTCRAKGTGYYVVFSPKVTDGTECRLYSNSVCVRGKCVRTGCDGIIGSKLQYDKCGVCGGDNSSCTKIVGTFNKKSKGYTDVVRIPEGATHIKVRQFKAKDQTRFTAYLALKKKNGEYLINGKYMISTSETIIDINGTVMNYSGWSHRDDFLHGMGYSATKEILIVQILATDPTKPLDVRYSFFVPKKSTPKVNSVTSHGSNKVGSHTSQPQWVTGPWLACSRTCDTGWHTRTVQCQDGNRKLAKGCPLSQRPSAFKQCLLKKC
generation of α2M neoepitopes on digestion (50 ng α2M, 100 ng enzyme, 37° C., 1-30 min): Both neoepitopes were generated as early as after 2 minutes of incubation, and increased over time, up to after 30 minutes of incubation

B2: ADAMTS-4 (protein)
chain: FASLSRFVETLVVADDKMAAFHGAGLKRYLLTVMAAAAKAFKHPSIRNPVSLVVTRLVILGSGEEGPQVGPSAAQTLRSFCAWQRGLNTPEDSDPDHFDTAILFTRQDLCGVSTCDTLGMADVGTVCDPARSCAIVEDDGLQSAFTAAHELGHVFNMLHDNSKPCISLNGPLSTSRHVMAPVMAHVDPEEPWSPCSARFITDFLDNGYGHCLLDKPEAPLHLPVTFPGKDYDADRQCQLTFGPDSRHCPQLPPPCAALWCSGHLNGHAMCQTKHSPWADGTPCGPAQACMGGRCLHMDQLQDFNIPQAGGWGPWGPWGDCSRTCGGGVQFSSRDCTRPVPRNGGKYCEGRRTRFRSCNTEDCPTGSALTFREEQCAAYNHRTDLFKSFPGPMDWVPRYTGVAPQDQCKLTCQAQALGYYYVLEPRVVDGTPCSPDSSSVCVQGRCIHAGCDRIIGSKKKFDKCMVCGGDGSGCSKQSGSFRKFRYGYNNVVTIPAGATHILVRQQGNPGHRSIYLALKLPDGSYALNGEYTLMPSPTDVVLPGAVSLRYSGATAASETLSGHGPLAQPLTLQVLVAGNPQDTRLRYSFFVPRPTPSTPRPTPQDWLHRRAQILEILRRRPWAGRK
generation of α2M neoepitopes on digestion (50 ng α2M, 100 ng enzyme, 37° C., 1-30 min): Both neoepitopes were generated as early as after 2 minutes of incubation, and increased over time, up to after 30 minutes of incubation
